Where two headings read alike, the source gives them in different places. Values belong to the molecule of their own block, whether it stands above or below them.
How the values were obtained:
[1] = molecular target: T1, Aminopeptidase B (His-rAp-B) (Rattus norvegicus, UniProt O09175); assay: L-Arg-β-NA hydrolysis assay with recombinant enzyme; Ki and percent inhibition ([…] at […]); type: biochemical
T1 construct: gene Rnpep; His-tagged full-length rat Ap-B (673 residues incl. His-tag/Factor Xa site; 650-residue Ap-B) from E. coli
T1 sequence (O09175 1-650): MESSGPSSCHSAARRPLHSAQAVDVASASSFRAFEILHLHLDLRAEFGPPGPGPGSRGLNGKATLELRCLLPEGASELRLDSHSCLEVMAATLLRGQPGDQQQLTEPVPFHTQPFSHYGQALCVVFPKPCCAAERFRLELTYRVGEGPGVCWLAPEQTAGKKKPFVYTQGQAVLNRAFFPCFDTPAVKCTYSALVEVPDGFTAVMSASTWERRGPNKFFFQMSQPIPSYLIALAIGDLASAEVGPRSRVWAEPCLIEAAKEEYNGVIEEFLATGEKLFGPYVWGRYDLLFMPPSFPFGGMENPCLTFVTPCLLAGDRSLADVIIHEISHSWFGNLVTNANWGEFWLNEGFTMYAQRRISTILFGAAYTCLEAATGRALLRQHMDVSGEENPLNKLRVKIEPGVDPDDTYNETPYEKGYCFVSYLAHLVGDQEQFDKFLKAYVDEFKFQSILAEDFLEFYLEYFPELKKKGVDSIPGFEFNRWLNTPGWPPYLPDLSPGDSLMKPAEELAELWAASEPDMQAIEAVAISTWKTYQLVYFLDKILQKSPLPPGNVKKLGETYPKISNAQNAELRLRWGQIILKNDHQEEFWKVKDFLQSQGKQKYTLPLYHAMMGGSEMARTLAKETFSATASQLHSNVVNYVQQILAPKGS

[2] = molecular target: T1, Aminopeptidase B (His-rAp-B); assay: as above; type: biochemical; remark: listed apart in the source
[3] = molecular target: T1, Aminopeptidase B (His-rAp-B); assay: as above; type: biochemical; remark: listed apart in the source
purified protein [4] = substrate: N=C(N)NCCC[C@H](N)C(=O)Nc1ccc2ccccc2c1; assay: purified protein; type: biochemical, Rattus norvegicus; details: Zn2+
purified protein [5] = substrate: NCCCC[C@H](N)C(=O)Nc1ccc2ccccc2c1; assay: purified protein; type: biochemical, Rattus norvegicus; details: Zn2+

Molecule: CC(C)C[C@H](NC(=O)[C@@H](O)[C@H](N)Cc1ccccc1)C(=O)O [Bestatin]
Ki [2]: 50 nM

B1: Aminopeptidase B (His-rAp-B) (Rattus norvegicus) (protein)
chain: MESSGPSSCHSAARRPLHSAQAVDVASASSFRAFEILHLHLDLRAEFGPPGPGPGSRGLNGKATLELRCLLPEGASELRLDSHSCLEVMAATLLRGQPGDQQQLTEPVPFHTQPFSHYGQALCVVFPKPCCAAERFRLELTYRVGEGPGVCWLAPEQTAGKKKPFVYTQGQAVLNRAFFPCFDTPAVKCTYSALVEVPDGFTAVMSASTWERRGPNKFFFQMSQPIPSYLIALAIGDLASAEVGPRSRVWAEPCLIEAAKEEYNGVIEEFLATGEKLFGPYVWGRYDLLFMPPSFPFGGMENPCLTFVTPCLLAGDRSLADVIIHEISHSWFGNLVTNANWGEFWLNEGFTMYAQRRISTILFGAAYTCLEAATGRALLRQHMDVSGEENPLNKLRVKIEPGVDPDDTYNETPYEKGYCFVSYLAHLVGDQEQFDKFLKAYVDEFKFQSILAEDFLEFYLEYFPELKKKGVDSIPGFEFNRWLNTPGWPPYLPDLSPGDSLMKPAEELAELWAASEPDMQAIEAVAISTWKTYQLVYFLDKILQKSPLPPGNVKKLGETYPKISNAQNAELRLRWGQIILKNDHQEEFWKVKDFLQSQGKQKYTLPLYHAMMGGSEMARTLAKETFSATASQLHSNVVNYVQQILAPKGS
notes: His-tagged full-length rat Ap-B (673 residues incl. His-tag/Factor Xa site; 650-residue Ap-B) from E. coli, Ni-NTA purified
Km (purified protein [4]): 108 ± 13 µM
Vmax (purified protein [4]): 8.76 µM/min
kcat (purified protein [4]): 20 ± 3 s⁻¹
kcat/Km (purified protein [4]): 185000 M⁻¹ s⁻¹
Km (purified protein [5]): 135 ± 30 µM
Vmax (purified protein [5]): 3.9 µM/min
kcat (purified protein [5]): 3 ± 0.35 s⁻¹
kcat/Km (purified protein [5]): 22000 ± 2000 M⁻¹ s⁻¹

Now from value to molecule:

Ki [1]: 20 nM
Molecule: NC(N)=NCCC[C@H](N)C(=O)C[C@@H](Cc1ccccc1)C(=O)O [Arphamenine A]

Ki [3]: 20 nM
Molecule: N=C(N)NCCC[C@H](N)C(=O)C[C@@H](Cc1ccc(O)cc1)C(=O)O [Arphamenine B]
